In the supplement of paper PMC10724198:
± gives the standard deviation of the averaged measurements.

tested on: Saccharomyces cerevisiae; experiment: protein stability index of tFT-peptide fusion (C-terminal peptide) (PSI (0-1 scale)); higher = more stable (slower turnover); settings: genetic background: wild type; temperature: 30 C
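Also: PSI is a weighted mean of sequencing reads over stability bins, variants kept only with over 10 reads, mCherry proximal and sfGFP distal, peptide attached via GGGS linker.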

Sequence | protein stability index
SLCCPLHQTRFR | 0.684 ± 0.046
WGSSCQAEDVTN | 0.737 ± 0.016
SSVNRPTSWTKA | 0.739 ± 0.024
PLSLSSPPLFLL | 0.639 ± 0.0006
AGGWVGAEGCGG | 0.763 ± 0.024
MPRRLSLNLDYL | 0.6563 ± 0.0064
RRTRRSTGHATG | 0.665 ± 0.043
REGCYVRGGILL | 0.68 ± 0.072
GIPIQKLEYMCK | 0.669 ± 0.019
VTVLFFLGPSLL | 0.575 ± 0.013
PPSPTPPALPAP | 0.688 ± 0.018
CGILTWASSSLG | 0.688 ± 0.034
PKVRAGYSYEVM | 0.673 ± 0.019
WCFVPLSFRLDS | 0.71 ± 0.025
PPQPRLTPSPPL | 0.697 ± 0.028
SLEWGGGRRWPI | 0.719 ± 0.023
PPRPSPPPPPRS | 0.735 ± 0.09
PSLNNTMLKENK | 0.62 ± 0.061
HAPPPPDASPPL | 0.677 ± 0.051
VLGVVGNYFESA | 0.668 ± 0.078
ALTALQTFRITL | 0.638 ± 0.014
RWSVSLAVTVLL | 0.503 ± 0.011
DLILECRYEVGV | 0.667 ± 0.053
SPPPGSRTFAFR | 0.697 ± 0.042
SYPLSRPCSPCD | 0.677 ± 0.068
SPALSPDPSPSP | 0.704 ± 0.037

Sequence | protein stability index
FFVLGRGVCLGA | 0.649 ± 0.066
RGGWGGGGAAGS | 0.649 ± 0.053
VRPEPSTGARGA | 0.669 ± 0.049
ERRPYVAGRRRF | 0.6722 ± 0.0049
REGRTRGTAAER | 0.679 ± 0.027
PPPRSPPAPPPP | 0.774 ± 0.052
WECGRVSVIRRC | 0.594 ± 0.019
LNQHEQKRKNEG | 0.724 ± 0.098
PSPSPSPPLPPP | 0.652 ± 0.0077
EVCTFPGSIRSS | 0.521 ± 0.023
GVLQEYIGKKQK | 0.723 ± 0.043
LGVLRALLGEGM | 0.688 ± 0.033
APRLRRHPPHEP | 0.696 ± 0.0079
PSPLPPPVSRPP | 0.691 ± 0.049
LLPTRPAPHLSL | 0.704 ± 0.17
RPPLIPAALLFL | 0.589 ± 0.048
LTFSVQCVYFDS | 0.571
WYHALTLASWLS | 0.577 ± 0.021
TICVILNGVGYS | 0.625 ± 0.11
TTRYKKQNRRKE | 0.74 ± 0.24
VGGGRDLFFFKF | 0.602 ± 0.044
RTTKRNDYLSHI | 0.699 ± 0.08
PSPPPPPPPQPS | 0.722 ± 0.059
CPVFYRYCHPPH | 0.707 ± 0.047
CIFWGSGWDTLV | 0.728 ± 0.063
PVSPRLLLRFTL | 0.691 ± 0.14

Sequence | protein stability index
ERERREGEGKRQ | 0.721 ± 0.023
PDCSFLNSTFTS | 0.739 ± 0.088
SGSGCSDRRPSR | 0.699 ± 0.02
GGRVKPRGVGVG | 0.648 ± 0.016
WGGGVGWSGACL | 0.734 ± 0.02
KKKKKKKNTKTK | 0.644 ± 0.0076
LRKDVRTRSNTK | 0.806 ± 0.051
GRKLLAGPDGDI | 0.658 ± 0.039
SNTKLIGGFFRD | 0.646 ± 0.1
EGHREARGGMAR | 0.673 ± 0.018
CAGLIDLVGDVS | 0.654 ± 0.018
RCHGRVNLAEGE | 0.7564 ± 0.00055
PFPPRRLLSAPP | 0.671 ± 0.039
FLLFLSSAPPAT | 0.655 ± 0.0084
GRGGEGQGKRRE | 0.668 ± 0.034
TPSLLSPPLSLA | 0.7036 ± 0.0027
FALSSLTFPLPT | 0.744 ± 0.094
PSWLLFGVHGGW | 0.71 ± 0.056
YGIGNVNTGRGP | 0.703 ± 0.011
GGYRFCSKYKSE | 0.673 ± 0.023
RSTGGHGSQAGR | 0.711 ± 0.04
PFPSTIQSYSYS | 0.738 ± 0.07
EAQWRGVRHHSR | 0.641 ± 0.036
RGRVLDTRDWGP | 0.666 ± 0.059
KLPRPPQRLRLP | 0.684 ± 0.066
ILSPDRTHANET | 0.665 ± 0.083

Sequence | protein stability index
ITKTGAAEHASL | 0.63 ± 0.037
GVRGKDCMGGGM | 0.613 ± 0.063
RNKRPDQRERKQ | 0.692 ± 0.17
PMIENQQIDKTN | 0.649 ± 0.0095
RVIPRTRISLLS | 0.575 ± 0.0075
PFPSFLPLLLPS | 0.702 ± 0.069
RDERDWDGSSWA | 0.708 ± 0.03
LSARSSFIFSYY | 0.645 ± 0.017
LATLLIRLLGQA | 0.496 ± 0.0088
EKKRQKKQKTGK | 0.67136 ± 0.00051
RAGKEGRVSSSK | 0.6619 ± 0.0057
VPLSPVSSGAPD | 0.66 ± 0.04
NASASTLPFPLD | 0.71 ± 0.054
PPPRLTVPIPSS | 0.6477 ± 0.0054
VFCGACRLHLCL | 0.69 ± 0.077
VGAGLRMRVGEA | 0.669 ± 0.035
RQFVTACPLWRH | 0.676 ± 0.046
YGSYVVNSLYLS | 0.616 ± 0.0097
NFIKCASDIRID | 0.67 ± 0.027
PRAPHATGYNRR | 0.7016 ± 0.0069
ERAGPGGARRVD | 0.696 ± 0.018
VFDHVGWPFWSY | 0.714 ± 0.041
TLSSSPRPLPVP | 0.692 ± 0.051
VRWGLLLSCLRS | 0.666 ± 0.03
KLSIWRADKDLE | 0.688 ± 0.015
SLVLPSFSLFSR | 0.728 ± 0.028

Sequence | protein stability index
GEGGEGWGCFSF | 0.677 ± 0.021
PRPPAPRTGPPP | 0.633 ± 0.011
ELRSYAGMSGFN | 0.736 ± 0.014
SLGGLVSGPGLV | 0.687 ± 0.032
PEPSRRASAVSN | 0.648 ± 0.059
PPLGPTSARALA | 0.619 ± 0.014
SFYFSAFYPSIV | 0.667 ± 0.013
FSPGYPMAFSLR | 0.74 ± 0.0075
RRDLKNVRLPDR | 0.675 ± 0.055
PPNPPPGPTVPF | 0.768 ± 0.084
APCRSLLADLAL | 0.736 ± 0.036
YWSFRKGGLALY | 0.651 ± 0.019
HLPRHVSLLGPP | 0.671 ± 0.0079
GGCEWWSWGRGG | 0.729 ± 0.041
IRQITVTICRGR | 0.639 ± 0.067
VSPRYRDRPGPS | 0.692 ± 0.015
PAPRARTPLDRI | 0.683 ± 0.039
PRPPPPRIPRPD | 0.7 ± 0.12
LNSTDMNKKKFK | 0.719 ± 0.0092
VVSLGLGPSLRV | 0.709 ± 0.1
PPRPLRAEGLES | 0.727 ± 0.028
AYVFLPINKENR | 0.6405 ± 0.0053
KKKKKKKKKKKK | 0.6364 ± 0.00086
PPRPPSPPPPPS | 0.779 ± 0.16
AYGGEWGDRGWL | 0.688 ± 0.076
LHGDLLFSVYVL | 0.597 ± 0.083

Sequence | protein stability index
SASPPLAERRGQ | 0.655 ± 0.043
SFFCSKCPLLCP | 0.533 ± 0.016
VRLIGVSVGALE | 0.579 ± 0.068
ELGVGVLDRGCL | 0.608 ± 0.22
AFFLVLSAFRWI | 0.541 ± 0.091
GGGYHLGSCDKL | 0.624 ± 0.025
GMGRGRGNANEG | 0.622 ± 0.045
GGSTAKGRPMDT | 0.645 ± 0.0067
APPPPPPPPRPL | 0.642 ± 0.041
VECLDTKTTCNI | 0.73 ± 0.035
YLTCTLLSQPIY | 0.542 ± 0.027
GRFVAPDSHPVG | 0.682 ± 0.021
LSGYLVCSLSLR | 0.695 ± 0.045
STPSPSPTGLSR | 0.597 ± 0.065
HVLCRAFLFLLP | 0.642 ± 0.016
RGCGGGTGDGRG | 0.697 ± 0.045
PPPLPYKAPRIL | 0.7068 ± 0.0036
DLCSPWGVDGVK | 0.696 ± 0.00079
NINHTNLKENKD | 0.667 ± 0.0099
APKCRRRNSSGL | 0.68 ± 0.057
LSSQCIVQLFRA | 0.64 ± 0.025
SCSVGRRIGLGQ | 0.688 ± 0.061
KNNITTTNKRMK | 0.679 ± 0.0071
VGWCTGWFVGLV | 0.6652 ± 0.0063
HNFYKLNLDHLK | 0.649 ± 0.061
TLPPSPTPPLYP | 0.773 ± 0.031

Sequence | protein stability index
VLSGLPPGFTLV | 0.644 ± 0.012
PPSPLLVTLPPA | 0.704 ± 0.022
IRRNRGLKWNVN | 0.613 ± 0.068
SLILRHLSPPTP | 0.762 ± 0.15
SSHHYSCPLVDT | 0.667 ± 0.058
RSHAHTRNGSSA | 0.675 ± 0.022
SFSLAGFVCCVI | 0.6002 ± 0.0045
SAFPSRVIGGGV | 0.661 ± 0.01
PSPLRASPTAVF | 0.62 ± 0.013
VLARPQAKAPLG | 0.571
PMRAALIIFLVR | 0.5 ± 0.1
APRIILTCRSLT | 0.5 ± 0.1
GWGGGGGGRGWG | 0.71 ± 0.055
SLIPLRLTLTRH | 0.739 ± 0.023
ESSQLELRGGGR | 0.725 ± 0.0047
WGLGVFALKTLL | 0.623 ± 0.034
PSPFPCVFRFSA | 0.635 ± 0.029
QFVSALVCLSVG | 0.5534 ± 0.0015
LPPPLPPATPPP | 0.675 ± 0.16
WWASFVGSFVGD | 0.878 ± 0.15
GSQPSQRRSSGA | 0.679 ± 0.014
KKKKQKIRKVKK | 0.725 ± 0.084
LHSPATAPHRPP | 0.67 ± 0.022
LPVFVIGEFLLV | 0.49 ± 0.037
FGAHVGWHEASP | 0.705 ± 0.018
LLPSPSYPLSPS | 0.751 ± 0.037

Sequence | protein stability index
PSLPVPLVPPLS | 0.633 ± 0.014
ARAPPLPPPPAL | 0.698 ± 0.0076
VLGGSMWLDLVC | 0.781 ± 0.23
SGRPEGERAPEQ | 0.728 ± 0.06
SRGWCGRVVWGK | 0.729 ± 0.01
KKQEKKKNKNDR | 0.646 ± 0.028
PNVHMRVFELFM | 0.72 ± 0.054
CAVVSRYQPLSL | 0.7092 ± 0.006
CSCSTFWFFFGR | 0.724 ± 0.026
LSRFLPESVYMS | 0.679 ± 0.011
IKKRTSNRENKD | 0.7 ± 0.025
LVGTFTEKFRVC | 0.578 ± 0.023
KTKVIFMYKKGQ | 0.675 ± 0.021
GMWGGLSPFLGQ | 0.691 ± 0.015
PPPLHPRYDPPA | 0.685 ± 0.025
DGGGGGGAPRVR | 0.715 ± 0.11
GWDRNVGWVVGR | 0.735 ± 0.044
IPSRGVQIPSWV | 0.63 ± 0.03
SLLLMLPFPLPG | 0.618 ± 0.028
VTSVCGYVRIWW | 0.71 ± 0.047
